Test results from PMC9505826, “A Peptide Inhibitor of the Human Cytomegalovirus Core Nuclear Egress Complex” (Pharmaceuticals, 2022).

Target: recombinant HCMV pUL50 (His-tagged) (human cytomegalovirus (HCMV)) (UniProt P16791)
Assay: ELISA; competition: pUL53 (1 µg/mL) coated on Immulon plates; peptide in serial dilutions from 10 µM together with His-tagged pUL50 (0.78 µg/mL) for 2.5 h; detection with anti-His-HRP; 0.1 M phosphate buffer pH 7.2, 0.1% BSA, 0.01% Tween 20

NLS-CPP (acetylated; pUL53 NLS 18-27 joined to HIV-1 Tat 47-59) (peptide)
IC50: > 10 µM
